Laboratory results reported in patent publication US20160115234A1 (Biogen, published 2016).

How the values were obtained:
[1] = molecular target: T1, human GPIIb/IIIa (Calbiochem Cat No. 528240) (human, UniProt P08514 32-1039; P05106 27-788); experiment: ELISA, hybridoma supernatant
T1 construct: Bought purified protein coated on ELISA plates; How the α/β subunit specificity ELISA was set up is not described; also called αIIbβ3; glycoprotein IIb/IIIa

[2] = molecular target: T2, GPIIb/IIIa on human platelets (human, UniProt P08514 32-1039; P05106 27-788); experiment: flow cytometry on platelets, hybridoma supernatant (signal higher than in ELISA)
T2 construct: Native receptor on gel-purified human platelets or on platelets in citrated human whole blood; also called GPIIb/IIIa receptor

[3] = molecular target: T3, GPIIb/IIIa nanodiscs (recombinant biotinylated, HPC4-tagged GPIIb/IIIa) (human, UniProt P08514 32-1039; P05106 27-788); experiment: SPR, biotinylated GPIIb/IIIa nanodiscs on a streptavidin chip
T3 construct: Transiently expressed in HEK293 cells, purified, and put into nanodiscs with scaffold protein and phospholipids; It carries a tag for in vivo biotinylation and an HPC4 tag; also called GPIIb/IIIa receptor; biotinylated GPIIb/IIIa receptor

[4] = molecular target: T2, GPIIb/IIIa on human platelets; experiment: flow cytometry, protein spiked into citrated human whole blood, FITC anti-FVII on CD42b-gated platelets

binding result [1]	Binder	also measured
binds	36A8 (antibody, V domains shown, Mouse hybridoma monoclonal tested as supernatant) VH: EVRLVESGGGLVKPGGSLKLSCAASGFTFSTYAMSWVRQTPEKRLEWVASINGGGSTYYPDSVKGRFTISRDNARNILYLQMRSLRSEDTAMYYCARGGDYGYALDYWGQGTSVTVSS VL: ENVLTQSPAIMSASLGEKVTMNCRASSSVNYMYWYQQKSDASPKLWIFYTSNLAPGVPARFSGSGSGNSYSLTISSMEGEDAATYYCQQFSSSPWTFGGGSKLEIKR	
binds	28F4 (antibody, V domains shown, Mouse hybridoma monoclonal tested as supernatant) VH: EVQLVESGGDLVKPGGSLKLSCAASGFTFSNYGMSWVRQTPDKRLEWVATISSGGTYTYYPDSVKGQFTIFRDNAKNTLYLQMSSLKSEDTAMYYCTRRDYDYEGFAYWGQGTLVTVS VL: DIVLTQSPATLSVTPGDSVSLSCRASQSISNNLHWYQQKSHESPRLLIKYASHSISGIPSRFSGSGSGTDFTLSINSVETEDFGMYFCQQSNNWPFTFGSGTKLEIKR	binding result [2]: binds
binds	28C2 (antibody, V domains shown, Mouse hybridoma monoclonal tested as supernatant) VH: QVTLKASGPGIVQPSQTLSLTCSFSGFSLNTSGMGVGWIRQPSGKGLEWLAHIWWDDDKRYNPALKSRLTISKDTSNNQIFLKIASVDTADTATYYCARSHYYGTFYFDYWGQGTTLTVSS VL: DVQITQSPSYLAASPGETITINCRASKSISKYLAWYQEKPGTTYKLLIYSGSTLQSGIPSRFSGSGSGTDFTLTISSLEPEDFAMYYCQQHIEYPWTFGGGTKLEIKR	
binds	38A8 (antibody, V domains shown, Mouse hybridoma monoclonal tested as supernatant) VH: QVQLQQSGAELVRPGTSVKVSCKASGYAFTNYLIEWIKQRPGQGLEWIGVINPGSGGTNYNEKFKGKATLTADKSSSTAYMQLSSLTSDDSAVYFCARGRYEWYFDVWGAGTTVTVSS VL: DIQMTQTTSSLSASLGDRVTISCRASQDISNYLNWYLQKPDGTVKLLIYYTSRLHSGVPSRFSGSGSGTDYSLSISNLEQEDIATYFCQQGYTLPYTFGGGTKLEIKR	

The next lines start with the binder.

Binder	binding result [1]	also measured
18F7 (antibody, V domains shown, Mouse hybridoma monoclonal tested as supernatant) VH: QVQLKESGPGLVAPSQSLSITCTVSGFSLTSYGVSWVRQPPGKGLEWLGIIWGDGSTNYHSVLKSRLSISKDNSKSQVFLKLNSLQTDDTATYYCAKQDFDVWGAGTTVTVSS VL: DVQMIQSPFSLSASLGDIVTMTCQASQGTSINLNWFQQKPGKAPKLLIYGVSNLEDGVPSRFSGSRYGTDFTLTIGSLEDEDMATYFCLQHSYLPYTFGGGTKLEIKR	binds	binding result [2]: binds
34D10 (antibody, V domains shown, Mouse hybridoma monoclonal tested as supernatant) VH: EVKLVESGGGLVKPGGSLKLSCAASGFTFSAYAMSWVRQTPEKRLEWVASISSGGTTYYPDSVKRRFTISRDNARNILYLQMSSLRSEDTAMYYCTRGGDYGYALDYWGQGTSVTVSS VL: ENVLTQSPAIMSASLGEKVTMSCRASSSVNYMYWYQQKSDASPKLWIYYTSNLAPGVPARFSGSGSGNSYSLTISSMEGEDAATYYCQQFSSSPWTFGGGTKLEIKR	binds	
4B11 (antibody, V domains shown, Mouse hybridoma monoclonal tested as supernatant) VH: EVKLVESGGGLVKPGGSLKLSCAASGFTFSSYAMSWVRQTPEKRLAWVASISSGGNIYFPDSVKGRFTISRDDARNILYLQMRSLRSEDTAMYYCARGGDYGYAMDYWGQGTSVTVSS VL: ENVLTQSPAIMSASLGEKVTMNCRASSSVNYMYWYQQKSDASPKLWIFYTSNLAPGVPARFSGSGSGNSYSLTISSMEGEDAATYYCQQFSSSPWTFGGGSKLEIKR	binds	
Recombinant FVIIa (enzyme, domain: light chain of FVIIa;domain: heavy chain of FVIIa; Untargeted control; also called rFVIIa; recombinant FVIIa alone (no targeting moiety)) chain 1: ANAFLEELRPGSLERECKEEQCSFEEAREIFKDAERTKLFWISYSDGDQCASSPCQNGGSCKDQLQSYICFCLPAFEGRNCETHKDDQLICVNENGGCEQYCSDHTGTKRSCRCHEGYSLLADGVSCTPTVEYPCGKIPILEKRNASKPQGR chain 2: IVGGKVCPKGECPWQVLLLVNGAQLCGGTLINTIWVVSAAHCFDKIKNWRNLIAVLGEHDLSEHDGDEQSRRVAQVIIPSTYVPGTTNHDIALLRLHQPVVLTDHVVPLCLPERTFSERTLAFVRFSLVSGWGQLLDRGATALELMVLNVPRLMTQDCLQQSRKVGDSPNITEYMFCAGYSDGSKDSCKGDSGGPHATHYRGTWYLTGIVSWGQGCATVGHFGVYTRVSQYIEWLQKLMRSEPRPGVLLRAPFP		binding result [3]: no binding; binding result [4]: no binding
9D6 (antibody, V domains shown, Mouse hybridoma monoclonal tested as supernatant) VH: QVTLKESGPGILQPSQTLSLTCSFSGFSLSTSGMGVGWIRQSSGKGLEWLAHIWWDDDKRYNPTLKSRLTISKDTSNNQVFLKIANMDTADIATYYCARSHYNGTFYFDFWGQGITLTVSS VL: DVQITQSPSYLAASPGETITINCRASKSISKYLAWYQEKPGKTNKLLIYSGSTLQSGIPSRFSGSGSGTDFTLTISTLEPEDFAMYYCQQHIEYPWTFGGGTKLEIKR	binds	
1H6 (antibody, V domains shown, Mouse hybridoma monoclonal tested as supernatant) VH: QVQLQQSGAELVRPGTSVKVSCKASGYAFTNYLIEWVKQRPGQGLEWIGVINPGSGGTNYNEKFKGKATLTADKSSSTAYMHLSSLTSDDSAVYFCARGRYEWYFDVWGAGTTVTVSS VL: DIQMTQTTSSLSASLGDRVTISCRASQDITNYLNWYQRKPDGTVKLLIYYTSRLHSGVPSRFSGSGSGTDYSLTISNLEQEDIATYFCQQGYTLPYTFGGGTKLEIKR	binds	
12B2 (antibody, V domains shown, Mouse hybridoma monoclonal tested as supernatant) VH: QVQLQQSGAELTKPGASVKISCKATGYTFSSYWIEWVKQRPGHGLEWIGEILPGSGITKYNDKFKGKATFTADTSSNTAYMQLSSLTSEDSAVYSCARLISYYYAMDYWGQGTSVTVSS VL: DIQMTQTTSSLSASLGDRVTISCRASQDISNYLNWYQQKPDGTVKLLIYYTSRLHSGVPSRFSGSGSGTDYSLTISNLEQEDIATYFCQQGNTLPPTFGGGTKLEIKR	binds	
